Our source for the binding signal (fold IC50 (reference)) and binding signal (fold IC50 (A competitor / G competitor)) values is PMC2933242.

This data set deals with T1, ERRα (estrogen-related receptor alpha) (UniProt P11474).
T1 sequence: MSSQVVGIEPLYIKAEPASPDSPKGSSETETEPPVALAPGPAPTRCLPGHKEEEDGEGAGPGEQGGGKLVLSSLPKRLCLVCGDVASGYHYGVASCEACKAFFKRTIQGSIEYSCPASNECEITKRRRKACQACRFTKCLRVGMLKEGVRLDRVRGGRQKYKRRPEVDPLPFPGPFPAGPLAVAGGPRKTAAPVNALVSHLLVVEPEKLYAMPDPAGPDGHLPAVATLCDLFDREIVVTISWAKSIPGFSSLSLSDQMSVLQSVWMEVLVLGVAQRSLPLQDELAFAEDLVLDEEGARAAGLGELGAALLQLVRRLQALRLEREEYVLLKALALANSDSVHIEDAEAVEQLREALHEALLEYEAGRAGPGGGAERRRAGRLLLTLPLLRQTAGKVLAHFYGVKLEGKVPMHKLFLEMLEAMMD
The experiment in a line: competition. The conditions noted are these: 10-, 50-, EMSA with 15,000 cpm probe per reaction, buffer, salt, pH and temperature not given (as in ref 28). A general note: In EMSA bound probe runs differently from free probe, usually more slowly.

Consider “GATCTAGCTCCTGCAGGTTCTCAAGGTTGTAGCCCGCACCCTGCTGATC (double strand) [PPARA -54,642 G probe (with -54,645 C)]”, for which the binding signal (fold IC50 (reference)) (unlabeled G vs 32P G probe, 100-fold excess) was 1.
In the case of “GATCTAGCTCCTGCAGGTTCTCAAGGTTGTAGTCCACACCCTGCTGATC (double strand) [PPARA -54,642 A probe (with -54,645 T)]”, the binding signal (fold IC50 (A competitor / G competitor)) (vs 32P G probe, 100-fold excess of competitor) is 2.3.
